Measured values: article PMC8079415 (2021)

Molecular target: full-length human Bcl-2 protein (human, UniProt P10415 1-239)
Experiment: NMR; 5 mM DPC micelles, pH 6.0, 310 K

full-length human Bcl-2 protein, sequence (P10415 other isoform, or with tags, fused parts or gaps): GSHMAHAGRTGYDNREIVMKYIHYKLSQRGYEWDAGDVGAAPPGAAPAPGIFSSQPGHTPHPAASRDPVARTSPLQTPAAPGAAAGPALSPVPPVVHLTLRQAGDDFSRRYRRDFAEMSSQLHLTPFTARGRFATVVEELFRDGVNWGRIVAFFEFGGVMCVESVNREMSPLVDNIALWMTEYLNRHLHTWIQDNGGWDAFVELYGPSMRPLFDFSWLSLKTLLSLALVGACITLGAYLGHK

Kd: 143 µM
Binder: Ac-QPPQDASTKKLSECLRRIGDELDSNMELQRMIADVD-NH2 [36-mer Bax-BH3 peptide from Mus musculus]
